Source: patent publication US20250170255A1 (Daiichi Sankyo, published 2025)

Tests used:
[1] = molecular target: T1, biotinylated human TROP2 antigen (human, UniProt P09758 27-274, C-terminal Avi tag sequence biotinylated); experiment: ELISA, immobilised biotinylated human TROP2 antigen, anti-FLAG-HRP detection; without MMP1
T1 construct: extracellular domain
T1 sequence (looked up): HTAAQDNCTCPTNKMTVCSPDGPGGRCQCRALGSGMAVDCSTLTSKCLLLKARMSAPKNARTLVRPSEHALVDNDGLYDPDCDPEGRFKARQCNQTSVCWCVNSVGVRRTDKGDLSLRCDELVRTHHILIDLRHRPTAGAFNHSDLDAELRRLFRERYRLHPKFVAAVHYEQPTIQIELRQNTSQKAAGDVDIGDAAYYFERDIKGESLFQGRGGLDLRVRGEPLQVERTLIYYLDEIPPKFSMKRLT
Description: (§1) NeutrAvidin (Thermo Fisher Scientific) diluted to 1 μg/ml with PBS was added at 50 μl/well to a 96-well Maxi-sorp plate (Black, Nunc) and immobilized at 4° C. overnight. The plate was washed with PBS containing 0.05% (w/v) Tween-20 (BioRad) (ELISA buffer) and then blocked with Blocker Casein (Thermo Fisher Scientific). The plate was washed with ELISA buffer, the biotinylated human TROP2 antigen (Accession Number: P09758; the extracellular domain was purified by the method known to a person skilled in the art and the C-terminal Avi tag sequence was then biotinylated) diluted to 1 μg/ml with PBS was added at 50 μl/well, and the resultant was then agitated for 30 minutes at room temperature. […] The plate was washed with ELISA buffer, the SuperSignal Pico ELISA chemiluminescent substrate (Thermo Fisher Scientific) was added, and chemiluminescence 10 minutes thereafter was then assayed using a plate reader.
(§2) The resultant was then added to the plate comprising the human TROP2 antigen immobilized thereon at 50 μl/well. The bound scFv was detected using the HRP-labeled anti-FLAG antibody (Sigma-Aldrich) diluted to 5,000-fold with ELISA buffer.

[2] = molecular target: T1, biotinylated human TROP2 antigen; experiment: ELISA, anti-FLAG detection, with and without MMP1
Description: as §2
The antibody was adjusted to 1 μM with the use of MMP buffer, MMP1 was added to the final concentration of 1 μM or 0 μM, and the reaction was allowed to proceed at 37° C. for 15 minutes. Thereafter, the antibody with the concentration thereof being adjusted with ELISA buffer was added to the wells.

[3] = molecular target: T1, biotinylated human TROP2 antigen; experiment: ELISA, immobilised biotinylated human TROP2 antigen, anti-FLAG-HRP detection; after MMP1 pre-treatment (mask linker cleaved)
Description: as §1, §2

TROP2 on FaDu cells = molecular target: T2, TROP2 on FaDu cells (human, UniProt P09758 27-323); experiment: cell-based or functional assay
T2 sequence (looked up): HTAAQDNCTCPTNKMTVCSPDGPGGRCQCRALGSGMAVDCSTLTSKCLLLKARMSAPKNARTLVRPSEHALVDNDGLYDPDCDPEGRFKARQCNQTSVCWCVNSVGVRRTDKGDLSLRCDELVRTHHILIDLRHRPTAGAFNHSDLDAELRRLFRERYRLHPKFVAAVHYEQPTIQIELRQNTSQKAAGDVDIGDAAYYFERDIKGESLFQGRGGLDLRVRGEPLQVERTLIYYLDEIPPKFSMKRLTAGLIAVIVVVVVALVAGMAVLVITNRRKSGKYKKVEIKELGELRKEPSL

[4] = molecular target: T1, biotinylated human TROP2 antigen; experiment: ELISA pH 7.5 against pH 5.5
[5] = molecular target: T1, biotinylated human TROP2 antigen; experiment: ELISA, immobilised biotinylated human TROP2 antigen, chemiluminescence; without MMP1
Description: (§3) NeutrAvidin (Thermo Fisher Scientific) diluted to 1 μg/ml with PBS was added at 50 μl/well to a 96-well Maxi-sorp plate (Black, Nunc) and immobilized at 4° C. overnight. The plate was washed with PBS containing 0.05% (w/v) Tween-20 (BioRad) (ELISA buffer) and then blocked with Blocker Casein (Thermo Fisher Scientific). The plate was washed with ELISA buffer, the biotinylated human TROP2 antigen (Accession Number: P09758; the extracellular domain was purified by the method known to a person skilled in the art and the C-terminal Avi tag sequence was then biotinylated) diluted to 1 μg/ml with PBS was added at 50 μl/well, and the resultant was then agitated for 30 minutes at room temperature. […] The plate was washed with ELISA buffer, 50 μl of the horseradish peroxidase (HRP)-labeled anti-human IgG antibody (Jackson Immuno Research Laboratories) diluted to 2,500-fold with ELISA buffer was added, and the resultant was then agitated for 30 minutes at room temperature. The plate was washed with ELISA buffer, the SuperSignal Pico ELISA chemiluminescent substrate (Thermo Fisher Scientific) was added, and chemiluminescence 10 minutes thereafter was then assayed using a plate reader.

[6] = molecular target: T1, biotinylated human TROP2 antigen; experiment: ELISA, immobilised biotinylated human TROP2 antigen, chemiluminescence
Description: as §3

[7] = molecular target: T1, biotinylated human TROP2 antigen; experiment: ELISA, immobilised biotinylated human TROP2 antigen, chemiluminescence; after MMP1 pre-treatment
Description: as §3

[8] = molecular target: T1, biotinylated human TROP2 antigen; experiment: ELISA, immobilised biotinylated human TROP2 antigen, chemiluminescence; pH 7.5
Description: (§4) The plate was washed with PBS containing 0.05% (w/v) Tween-20 (BioRad) (ELISA buffer) and then blocked with Blocker Casein (Thermo Fisher Scientific). The plate was washed with ELISA buffer, the biotinylated human TROP2 antigen (Accession Number: P09758; the extracellular domain was purified by the method known to a person skilled in the art and the C-terminal Avi tag sequence was then biotinylated) diluted to 1 μg/ml with PBS was added at 50 μl/well, and the resultant was then agitated for 30 minutes at room temperature. […] The plate was washed with ELISA buffer, 50 μl of the horseradish peroxidase (HRP)-labeled anti-human IgG antibody (Jackson Immuno Research Laboratories) diluted to 2,500-fold with ELISA buffer was added, and the resultant was then agitated for 30 minutes at room temperature. The plate was washed with ELISA buffer, the SuperSignal Pico ELISA chemiluminescent substrate (Thermo Fisher Scientific) was added, and chemiluminescence 10 minutes thereafter was then assayed using a plate reader. […]

[9] = molecular target: T1, biotinylated human TROP2 antigen; experiment: ELISA, immobilised biotinylated human TROP2 antigen, chemiluminescence; without MMP1; remark: listed apart in the source
Description: as §3

[10] = molecular target: T1, biotinylated human TROP2 antigen; experiment: ELISA, immobilised biotinylated human TROP2 antigen, chemiluminescence; after MMP1 pre-treatment (mask linker cleaved)
Description: as §3

[11] = molecular target: T1, biotinylated human TROP2 antigen; experiment: ELISA with and without MMP1
[12] = molecular target: T1, biotinylated human TROP2 antigen; experiment: ELISA, immobilised biotinylated human TROP2 antigen, chemiluminescence; pH 5.5
[13] = molecular target: T1, biotinylated human TROP2 antigen; experiment: ELISA, immobilised biotinylated human TROP2 antigen, chemiluminescence; pH 7.5; remark: listed apart in the source
Description: as §4

[14] = molecular target: T1, biotinylated human TROP2 antigen; experiment: as above; remark: listed apart in the source
Description: as §4

[15] = molecular target: T1, biotinylated human TROP2 antigen; experiment: ELISA, immobilised biotinylated human TROP2 antigen, chemiluminescence; pH 5.5; remark: listed apart in the source
Description: as §4

[16] = molecular target: T1, biotinylated human TROP2 antigen; experiment: ELISA, immobilised biotinylated human TROP2 antigen, anti-FLAG-HRP detection; after MMP1 pre-treatment (mask linker cleaved); remark: listed apart in the source
Description: as §1, §2

B1: MHT1002 (scFv)
scFv: AMGYLALKHPWPGLAENSGSGGGGSVLVPMAMMASGGSDVNSDIQMTQSPSSLSASVGDRVTITCKASQDVSTAVAWYQQKPGKAPKLLIYSASYRYTGVPSRFSGSGSGTDFTLTISSLQPEDFAVYYCQQHYITPLTFGQGTKLEIKRGGGGSGGGGSGGGGSQVQLVQSGAEVKKPGASVKVSCKASGYTFTTAGMQWVRQAPGQGLEWMGWINTHSGVPKYAEDFKGRVTISADTSTSTAYLQLSSLKSEDTAVYYCARSGFGSSYWYFDVWGQGTLVTVSSGAPSGDYKDDDDKGAAAHHHHHH
notes: Mimotope peptide, MMP cleavable linker, HT1-11 scFv, FLAG tag, His tag
EC50 (read off the curve) [1]: ~10 nM
EC50 ratio of binding intensity (without MMP1 / with MMP1) [2]: 4.3
EC50 (read off the curve) [3]: ~3 nM

B2: MHT1808-PBD-ADC (antibody, human IgG1, kappa)
heavy: not shown
light: DIQMTQSPSSLSASVGDRVTITCKASQDVSTAVAWYQQKPGKAPKLLIYSASYRYTGVPSRFSGSGSGTDFTLTISSLQPEDFAVYYCQQHYITPLTFGQGTKLEIKRTVAAPSVFIFPPSDEQLKSGTASVVCLLNNFYPREAKVQWKVDNALQSGNSQESVTEQDSKDSTYSLSSTLTLSKADYEKHKVYACEVTHQGLSSPVTKSFNRGEC
modifications: N297 glycan remodelled to azide-bearing MSG1-type glycan and conjugated to Linker 2 (PBD drug linker); average number of drugs bound 1.9
in vitro growth inhibitory activity on FaDu cells, EC50 ratio (pH 7.4/pH 5.5) (TROP2 on FaDu cells): 10.7

B3: MHT1221-PBD-ADC (antibody, human IgG1, kappa)
heavy: not shown
light: DIQMTQSPSSLSASVGDRVTITCKASQDVSTAVAWYQQKPGKAPKLLIYSASYRYTGVPSRFSGSGSGTDFTLTISSLQPEDFAVYYCQQHYITPLTFGQGTKLEIKRTVAAPSVFIFPPSDEQLKSGTASVVCLLNNFYPREAKVQWKVDNALQSGNSQESVTEQDSKDSTYSLSSTLTLSKADYEKHKVYACEVTHQGLSSPVTKSFNRGEC
modifications: N297 glycan remodelled to azide-bearing MSG1-type glycan and conjugated to Linker 2 (PBD drug linker); average number of drugs bound 1.9
in vitro growth inhibitory activity on FaDu cells, EC50 ratio (pH 7.4/pH 5.5) (TROP2 on FaDu cells): 1.9

B4: anti-TROP2 masked antibody MHT1805 (antibody)
heavy: not shown
light: DIQMTQSPSSLSASVGDRVTITCKASQDVSTAVAWYQQKPGKAPKLLIYSASYRYTGVPSRFSGSGSGTDFTLTISSLQPEDFAVYYCQQHYITPLTFGQGTKLEIKRTVAAPSVFIFPPSDEQLKSGTASVVCLLNNFYPREAKVQWKVDNALQSGNSQESVTEQDSKDSTYSLSSTLTLSKADYEKHKVYACEVTHQGLSSPVTKSFNRGEC
notes: His cluster linker; Full-length entries
EC50 ratio (neutral pH conditions/acidic pH conditions) [4]: 2.3

B5: anti-TROP2 antibody HT1-11 (antibody)
heavy: not shown
light: DIQMTQSPSSLSASVGDRVTITCKASQDVSTAVAWYQQKPGKAPKLLIYSASYRYTGVPSRFSGSGSGTDFTLTISSLQPEDFAVYYCQQHYITPLTFGQGTKLEIKRTVAAPSVFIFPPSDEQLKSGTASVVCLLNNFYPREAKVQWKVDNALQSGNSQESVTEQDSKDSTYSLSSTLTLSKADYEKHKVYACEVTHQGLSSPVTKSFNRGEC
notes: Known antibody of WO 2015/098099; Full-length entries
EC50 (read off the curve) [5]: ~0.5 nM
EC50 (read off the curve) [6]: ~0.6 nM
EC50 (read off the curve) [7]: ~0.5 nM

B6: anti-TROP2 masked antibody MHT1221 (antibody)
heavy: not shown
light: DIQMTQSPSSLSASVGDRVTITCKASQDVSTAVAWYQQKPGKAPKLLIYSASYRYTGVPSRFSGSGSGTDFTLTISSLQPEDFAVYYCQQHYITPLTFGQGTKLEIKRTVAAPSVFIFPPSDEQLKSGTASVVCLLNNFYPREAKVQWKVDNALQSGNSQESVTEQDSKDSTYSLSSTLTLSKADYEKHKVYACEVTHQGLSSPVTKSFNRGEC
notes: No His cluster; Full-length entries
EC50 ratio (neutral pH conditions/acidic pH conditions) [4]: 1.7
EC50 (read off the curve) [8]: ~50 nM

B7: anti-TROP2 masked antibody MHT1007 (antibody)
heavy: not shown
light: DIQMTQSPSSLSASVGDRVTITCKASQDVSTAVAWYQQKPGKAPKLLIYSASYRYTGVPSRFSGSGSGTDFTLTISSLQPEDFAVYYCQQHYITPLTFGQGTKLEIKRTVAAPSVFIFPPSDEQLKSGTASVVCLLNNFYPREAKVQWKVDNALQSGNSQESVTEQDSKDSTYSLSSTLTLSKADYEKHKVYACEVTHQGLSSPVTKSFNRGEC
notes: IgG-type; MHT1001 mimotope peptide and MMP cleavable linker fused to the heavy chain; Full-length entries
EC50 (read off the curve) [9]: ~30 nM
EC50 (read off the curve) [10]: ~0.3 nM
EC50 ratio of binding intensity (without MMP1 / with MMP1) [11]: 104

B8: anti-TROP2 masked antibody MHT1804 (antibody)
heavy: not shown
light: DIQMTQSPSSLSASVGDRVTITCKASQDVSTAVAWYQQKPGKAPKLLIYSASYRYTGVPSRFSGSGSGTDFTLTISSLQPEDFAVYYCQQHYITPLTFGQGTKLEIKRTVAAPSVFIFPPSDEQLKSGTASVVCLLNNFYPREAKVQWKVDNALQSGNSQESVTEQDSKDSTYSLSSTLTLSKADYEKHKVYACEVTHQGLSSPVTKSFNRGEC
notes: as for B4
EC50 ratio (neutral pH conditions/acidic pH conditions) [4]: 3.6

B9: anti-TROP2 masked antibody MHT1803 (antibody)
heavy: not shown
light: DIQMTQSPSSLSASVGDRVTITCKASQDVSTAVAWYQQKPGKAPKLLIYSASYRYTGVPSRFSGSGSGTDFTLTISSLQPEDFAVYYCQQHYITPLTFGQGTKLEIKRTVAAPSVFIFPPSDEQLKSGTASVVCLLNNFYPREAKVQWKVDNALQSGNSQESVTEQDSKDSTYSLSSTLTLSKADYEKHKVYACEVTHQGLSSPVTKSFNRGEC
notes: as for B4
EC50 ratio (neutral pH conditions/acidic pH conditions) [4]: 3.9
EC50 (read off the curve) [12]: ~30 nM
EC50 (read off the curve) [13]: ~100 nM

B10: anti-TROP2 masked antibody MHT1809 (antibody)
heavy: not shown
light: DIQMTQSPSSLSASVGDRVTITCKASQDVSTAVAWYQQKPGKAPKLLIYSASYRYTGVPSRFSGSGSGTDFTLTISSLQPEDFAVYYCQQHYITPLTFGQGTKLEIKRTVAAPSVFIFPPSDEQLKSGTASVVCLLNNFYPREAKVQWKVDNALQSGNSQESVTEQDSKDSTYSLSSTLTLSKADYEKHKVYACEVTHQGLSSPVTKSFNRGEC
notes: as for B4
EC50 ratio (neutral pH conditions/acidic pH conditions) [4]: 11.4
EC50 (read off the curve) [14]: ~60 nM
EC50 (read off the curve) [15]: ~5 nM

B11: MHT1001 (scFv)
scFv: AMGYLALKHPWPGLAENSGSGGGGSVLVPMAMMASGGSDVNSQVQLVQSGAEVKKPGASVKVSCKASGYTFTTAGMQWVRQAPGQGLEWMGWINTHSGVPKYAEDFKGRVTISADTSTSTAYLQLSSLKSEDTAVYYCARSGFGSSYWYFDVWGQGTLVTVSSGGGGSGGGGSGGGGSDIQMTQSPSSLSASVGDRVTITCKASQDVSTAVAWYQQKPGKAPKLLIYSASYRYTGVPSRFSGSGSGTDFTLTISSLQPEDFAVYYCQQHYITPLTFGQGTKLEIKRGAPSGDYKDDDDKGAAAHHHHHH
EC50 ratio of binding intensity (without MMP1 / with MMP1) [2]: 7.9
EC50 (read off the curve) [16]: ~8 nM
